Results from patent US20200277339A1 (GENOME PROTECTION, published 2020).

How the values were obtained:
[1] = target: TLR5 of the cell-based reporter assays; assay: cell-based or functional assay
[2] = target: TLR5 of the cell-based reporter assays; assay: cell-based or functional assay; remark: listed apart in the source

B1: CBLB502 mutant MIXC (ligand)
chain: MSGLRINSAKDDAAGQAIANRFTSNIKGLTQASRNANDGISIAQTTEGALNEINNNLQRVRELSVQATNGTNSDSDLKSIQDEIQQRLEEIDRVSNQTQFNGVKVLSQDNQMKIQVGANDGETITIDLQKIDVKSLGLDGFNVNSPGSTANPLASIDSALSKVDAVRSSLGAIQARFAAAIANLGNTVTNLNSARSRIEDADYATEVSNMSKAQILQQAGTSVLAQANQVPQNVLSLLVPRGSHHHHHHG
Q: With B1 as the binder, how does the “Signaling EC50 Normalized by CBLB502” value [1] read?
A: 1.5 fold vs CBLB502

B2: CBLB502 variant 461 (ligand)
chain: MRGSHHHHHHGMASMTGGQQMGRDLYDLVPRGSAKDPMAQVINTNSLSLLTQNNLNKSQSSLSSAIERLSSGLRINSAKDDAAGQAIANRFTSNIKGLTQASRNANDGISIAQTTEGALNEINNNLQRVRELSVQATNGTNSDSDLKSIQDEIQQRLEEIDRVSNQTQFNGVKVLSQDNQMKIQVGANDGETITIDLQKIDVKSLGLDGFNVNSPGISGGGGGILDSMGTLINEDAAAAKKSTANPLASIDSALSKVDAVRSSLGAIQNRFDSAITNLGNTVTNLNSAR
Q: Which “Relative EC50 vs 502, Signaling (LecZ)” value [2] does the source give for B2 here?
A: 105 fold vs 502

Q: What about the “Relative EC50 vs 502, Signaling (Luc)” value [2] of the same binder?
A: 97 fold vs 502

B3: CBLB502 variant 485D (ligand)
chain: MSGLRINSAKDDAAGQAIANRFTSNIKGLTQASRNANDGISIAQTTEGALNEINNNLQRVRELSVQATNGTNSDSDLKSIQDEIQQRLEEIDRVSNQTQFNGVKVLSQDNQMKIQVGANDGETITIDLQKIDVKSLGLDGFNVNSPGSTANPLASIDSALSKVDAVRSSLGAIDSAITALGNTVTNLNSARSRIEDADYATEVSNMSKAQILQQAGLVPRGSHHHHHHG
Q: Which “Relative EC50 vs 502, Signaling (LecZ)” value [2] does the source give for B3 here?
A: 44 fold vs 502

B4: CBLB502 mutant 33MIMX (ligand)
chain: MRGSHHHHHHGMASMTGGQQMGRDLYDLVPRGSAKDPSGLRINSAKDDAAGQAIANRFTSNIKGLTQASRNAADGISIAQTTEGALNEINNNLQRVRELSVQATNGTNSDSDLKSIQDEIQQRLEEIDRVSNQTQANGVKVLSQDNAMKIQVGANDGAAITIDLQKIDVKSLGLDGFNVNSPGISGGGGGILDSMGTLINEDAAAAKKSTANPLASIDSALSKVDAVRSSLGAIQARFAAAIANLGNTVTNLNSARSRIEDADYATEVSNMSKAQILQQAGTSVLAQANQVPQNVLSLLR
Q: B4 was tested. Which “Signaling EC50 Normalized by CBLB502” value [1] did it give?
A: 1.3 fold vs CBLB502

B5: CBLB502 (ligand)
chain: not shown
Q: With B5 as the binder, how does the “Relative EC50 vs 502, Signaling (LecZ)” value [2] read?
A: 1 fold vs 502

Q: What about the “Relative EC50 vs 502, Signaling (Luc)” value [2] of the same binder?
A: 1 fold vs 502

B6: CBLB502 mutant MIM4 (ligand)
chain: MRGSHHHHHHGMASMTGGQQMGRDLYDDDDKDPMAQVINTNSLSLLTQNNLNKSQSSLSSAIERLSSGLRINSAKDDAAGQAIANRFTSNIKGLTQASRNANDGISIAQTTEGALNEINNNLQRVRELSVQATNGTNSDSDLKSIQDEIQQRLEEIDRVSNQTQFNGVKVLSQDNQMKIQVGANDGETITIDLQKIDVKSLGLDGFNVNSPGISGGGGGILDSMGTLINEDAAAAKKSTANPLASIDSALSKVDAVRSSLGAIDSAITALGATVTALASAASRIEDADYATEVSNMSKAQILQQAGTSVLAQANQVPQNVLSLLR
Q: For B6, which “Signaling EC50 Normalized by CBLB502” value [1] is on record?
A: 37 fold vs CBLB502

B7: CBLB502 variant 467 (ligand)
chain: MRGSHHHHHHGMASMTGGQQMGRDLYDLVPRGSAKDPMAQVINTNSLSLLTQNNLNKSQSSLSSAIERLSSGLRINSAKDDAAGQAIANRFTSNIKGLTQASRNANDGISIAQTTEGALNEINNNLQRVRELSVQATNGTNSDSDLKSIQDEIQQRLEEIDRVSNQTQFNGVKVLSQDNQMKIQVGANDGETITIDLQKIDVKSLGLDGFNVNSPGISGGGGGILDSMGTLINEDAAAAKKSTANPLASIDSALSKVDAVRSSLGAIQNRFDSAITNLGNTVTNLNSARSRIEDA
Q: Which results are given for B7?
A: Relative EC50 vs 502, Signaling (LecZ) [2]: 57 fold vs 502; Relative EC50 vs 502, Signaling (Luc) [2]: 71 fold vs 502

B8: CBLB502 variant MF227C (ligand)
chain: MSGLRINSAKDDAAGQAIANRFTSNIKGLTQASRNANDGISIAQTTEGALNEINNNLQRVRELSVQATNGTNSDSDLKSIQDEIQQRLEEIDRVSNQTQFNGVKVLSQDNQMKIQVGANDGETITIDLQKIDVKSLGLDGFNVNSPGSTANPLASIDSALSKVDAVRSSLGAIQNRFDSAITNLGNTVTNLNSARSRIEDADYANQVPQNVLSLLVPRGSHHHHHHG
Q: With B8 as the binder, how does the “Relative EC50 vs 502, Signaling (LecZ)” value [2] read?
A: 5.5 fold vs 502

B9: CBLB502 variant 445 (ligand)
chain: MRGSHHHHHHGMASMTGGQQMGRDLYDLVPRGSAKDPMAQVINTNSLSLLTQNNLNKSQSSLSSAIERLSSGLRINSAKDDAAGQAIANRFTSNIKGLTQASRNANDGISIAQTTEGALNEINNNLQRVRELSVQATNGTNSDSDLKSIQDEIQQRLEEIDRVSNQTQFNGVKVLSQDNQMKIQVGANDGETITIDLQKIDVKSLGLDGFNVNSPGISGGGGGILDSMGTLINEDAAAAKKSTANPLASIDSALSKVDAVRSSLGAIQNRFD
Q: Which results are given for B9?
A: Relative EC50 vs 502, Signaling (LecZ) [2]: 694 fold vs 502; Relative EC50 vs 502, Signaling (Luc) [2]: 141000 fold vs 502

B10: CBLB502 mutant MIM1 (ligand)
chain: MRGSHHHHHHGMASMTGGQQMGRDLYDDDDKDPMAQVINTNSLSLLTQNNLNKSQSSLSSAIERLSSGLRINSAKDDAAGQAIANRFTSNIKGLTQASRNANDGISIAQTTEGALNEINNNLQRVRELSVQATNGTNSDSDLKSIQDEIQQRLEEIDRVSNQTQFNGVKVLSQDNQMKIQVGANDGETITIDLQKIDVKSLGLDGFNVNSPGISGGGGGILDSMGTLINEDAAAAKKSTANPLASIDSALSKVDAVRSSLGAIQNRFDSAITNLGNTVTALASARSRIEDADYATEVSNMSKAQILQQAGTSVLAQANQVPQNVLSLLR
Q: For B10, which “Signaling EC50 Normalized by CBLB502” value [1] is on record?
A: 0.9 fold vs CBLB502

B11: CBLB502 mutant MIM3 (ligand)
chain: MRGSHHHHHHGMASMTGGQQMGRDLYDDDDKDPMAQVINTNSLSLLTQNNLNKSQSSLSSAIERLSSGLRINSAKDDAAGQAIANRFTSNIKGLTQASRNANDGISIAQTTEGALNEINNNLQRVRELSVQATNGTNSDSDLKSIQDEIQQRLEEIDRVSNQTQFNGVKVLSQDNQMKIQVGANDGETITIDLQKIDVKSLGLDGFNVNSPGISGGGGGILDSMGTLINEDAAAAKKSTANPLASIDSALSKVDAVRSSLGAIQNRFDSAITALGATVTALASAASRIEDADYATEVSNMSKAQILQQAGTSVLAQANQVPQNVLSLLR
Q: Which “Signaling EC50 Normalized by CBLB502” value [1] does the source give for B11 here?
A: 4.6 fold vs CBLB502

B12: CBLB502 mutant MIM5 (ligand)
chain: MRGSHHHHHHGMASMTGGQQMGRDLYDDDDKDPMAQVINTNSLSLLTQNNLNKSQSSLSSAIERLSSGLRINSAKDDAAGQAIANRFTSNIKGLTQASRNANDGISIAQTTEGALNEINNNLQRVRELSVQATNGTNSDSDLKSIQDEIQQRLEEIDRVSNQTQFNGVKVLSQDNQMKIQVGANDGETITIDLQKIDVKSLGLDGFNVNSPGISGGGGGILDSMGTLINEDAAAAKKSTANPLASIDSALSKVDAVRSSLGAIAKAFDSAITALGATVTALASAASRIEDADYATEVSNMSKAQILQQAGTSVLAQANQVPQNVLSLLR
Q: For B12, which “Signaling EC50 Normalized by CBLB502” value [1] is on record?
A: 54 fold vs CBLB502

B13: CBLB502 mutant MIM2 (ligand)
chain: MRGSHHHHHHGMASMTGGQQMGRDLYDDDDKDPMAQVINTNSLSLLTQNNLNKSQSSLSSAIERLSSGLRINSAKDDAAGQAIANRFTSNIKGLTQASRNANDGISIAQTTEGALNEINNNLQRVRELSVQATNGTNSDSDLKSIQDEIQQRLEEIDRVSNQTQFNGVKVLSQDNQMKIQVGANDGETITIDLQKIDVKSLGLDGFNVNSPGISGGGGGILDSMGTLINEDAAAAKKSTANPLASIDSALSKVDAVRSSLGAIQNRFDSAITNLGNTVTALASAASRIEDADYATEVSNMSKAQILQQAGTSVLAQANQVPQNVLSLLR
Q: Which “Signaling EC50 Normalized by CBLB502” value [1] does the source give for B13 here?
A: 1.2 fold vs CBLB502
